Publication PMC7938106, “In vitro complex formation of human PYRIN domain-only protein 3 prevented by self-oligomerization of ASC PYD domain” (Saudi Journal of Biological Sciences, 2021)

Molecular target: the molecule itself
Assay: SEC-MALS; POP3 PYD (1-83) alone on column HR 10/30 in 20 mM Tris-HCl pH 8.0, 150 mM NaCl; three-angle light scattering and refractive index detectors, ASTRA software

B1: PYD domain of PYRIN Domain-Only Protein 3 (POP3), amino acids 1-83 (domain or fragment, human, UniProt W6CW81 1-83, looked up)
chain: MESKYKEILLLTSLDNITDEELDRFKCFLPDEFNIATGKLHTLNSTSSQLDLKRWHGVCSEEDRIFQKLNYMLVAKCLREEQE
notes: PYRIN domain-only protein 3 (POP3), human, PYD domain, residues 1-83 of the 113-residue protein; The vector probably adds linker residues before the His6; also called POP3 PYD (1-83 aa); POP3PYD; not shown: His6, C-terminal, kept
stoichiometry N: 2
